This passage reports stoichiometry N results from PMC5017722.

Experiment [1] deals with soluble hMPV F ectodomain (1-489, NL/1/00, G294E) with C-terminal TEV site, Foldon, Xa site and 6xHis-tag, uncleaved (human metapneumovirus, strain NL/1/00 (A1 sublineage)). Nature of the experiment: SEC; HiLoad 16/600 Superdex 200 pg; 50 mM Na2HPO4 pH 8.0, 300 mM NaCl. A general note: SEC sorts molecules by how far they enter the pores of the column.
Experiment [2] concerns the target soluble postfusion hMPV F (NL/1/00, A1 sublineage), furin-cleaved, fusion peptide residues 103-111 d (human metapneumovirus, strain NL/1/00 (A1 sublineage)). The description is as above.

The term stoichiometry N denotes the number of molecules, sites or subunits per partner or assembly. “soluble hMPV F ectodomain (1-489, NL/1/00, G294E) with C-terminal TEV site, Foldon, Xa site and 6xHis-tag, uncleaved (domain or fragment)” yielded a stoichiometry N in experiment [1] of 3.

Turning to “soluble postfusion hMPV F (NL/1/00, A1 sublineage), furin-cleaved, fusion peptide residues 103-111 d (domain or fragment)”, in experiment [2], the stoichiometry N is 3.
